Experimental data reported in patent publication US10087225B2, “Formulation of MK2 inhibitor peptides” (MOERAE MATRIX, INC., priority 2015, dated 2018).

Key:
Assay in all cases: Kinase Profiling Assay
Format in all cases: biochemical
Settings in all cases: for % activity: 100 μM
Ax1(h) = Ax1(h) (Homo sapiens, UniProt P30530)
cKit(h) = cKit(h) (Homo sapiens, UniProt P10721)
cSRC(h) = cSRC(h) (Homo sapiens, UniProt P12931)
EphA5(h) = EphA5(h) (Homo sapiens, UniProt P54756)
EphB1(h) = biological target: T1, EphB1(h) (Homo sapiens, UniProt P54762)
T1 sequence (P54762 18-984): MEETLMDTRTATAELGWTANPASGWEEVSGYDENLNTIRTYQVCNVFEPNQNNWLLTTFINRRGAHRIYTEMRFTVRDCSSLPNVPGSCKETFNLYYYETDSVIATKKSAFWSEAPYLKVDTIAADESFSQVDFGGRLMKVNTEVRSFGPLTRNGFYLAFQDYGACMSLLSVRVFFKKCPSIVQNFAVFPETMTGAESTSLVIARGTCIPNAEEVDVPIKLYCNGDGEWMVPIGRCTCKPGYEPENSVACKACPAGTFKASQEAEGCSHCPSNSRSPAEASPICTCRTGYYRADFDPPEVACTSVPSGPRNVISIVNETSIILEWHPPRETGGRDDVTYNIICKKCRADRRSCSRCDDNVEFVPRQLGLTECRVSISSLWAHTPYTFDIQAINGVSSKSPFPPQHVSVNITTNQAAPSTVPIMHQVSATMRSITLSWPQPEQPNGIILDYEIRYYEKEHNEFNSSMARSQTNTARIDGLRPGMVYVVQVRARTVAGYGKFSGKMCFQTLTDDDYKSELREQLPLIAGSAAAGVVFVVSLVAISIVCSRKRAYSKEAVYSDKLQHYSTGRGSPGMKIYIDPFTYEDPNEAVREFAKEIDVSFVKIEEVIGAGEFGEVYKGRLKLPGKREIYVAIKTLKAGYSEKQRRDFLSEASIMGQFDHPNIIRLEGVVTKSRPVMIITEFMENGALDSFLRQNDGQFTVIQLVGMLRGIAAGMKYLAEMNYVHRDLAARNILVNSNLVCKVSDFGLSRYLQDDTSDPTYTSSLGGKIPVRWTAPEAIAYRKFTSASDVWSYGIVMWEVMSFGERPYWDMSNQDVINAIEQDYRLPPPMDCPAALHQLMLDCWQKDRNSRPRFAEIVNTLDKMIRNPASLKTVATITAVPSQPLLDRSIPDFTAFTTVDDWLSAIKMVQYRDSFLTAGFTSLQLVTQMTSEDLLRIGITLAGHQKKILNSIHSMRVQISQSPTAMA

KDR(h) = KDR(h) (Homo sapiens, UniProt P35968)
KDR(h), sequence (P35968 20-1356): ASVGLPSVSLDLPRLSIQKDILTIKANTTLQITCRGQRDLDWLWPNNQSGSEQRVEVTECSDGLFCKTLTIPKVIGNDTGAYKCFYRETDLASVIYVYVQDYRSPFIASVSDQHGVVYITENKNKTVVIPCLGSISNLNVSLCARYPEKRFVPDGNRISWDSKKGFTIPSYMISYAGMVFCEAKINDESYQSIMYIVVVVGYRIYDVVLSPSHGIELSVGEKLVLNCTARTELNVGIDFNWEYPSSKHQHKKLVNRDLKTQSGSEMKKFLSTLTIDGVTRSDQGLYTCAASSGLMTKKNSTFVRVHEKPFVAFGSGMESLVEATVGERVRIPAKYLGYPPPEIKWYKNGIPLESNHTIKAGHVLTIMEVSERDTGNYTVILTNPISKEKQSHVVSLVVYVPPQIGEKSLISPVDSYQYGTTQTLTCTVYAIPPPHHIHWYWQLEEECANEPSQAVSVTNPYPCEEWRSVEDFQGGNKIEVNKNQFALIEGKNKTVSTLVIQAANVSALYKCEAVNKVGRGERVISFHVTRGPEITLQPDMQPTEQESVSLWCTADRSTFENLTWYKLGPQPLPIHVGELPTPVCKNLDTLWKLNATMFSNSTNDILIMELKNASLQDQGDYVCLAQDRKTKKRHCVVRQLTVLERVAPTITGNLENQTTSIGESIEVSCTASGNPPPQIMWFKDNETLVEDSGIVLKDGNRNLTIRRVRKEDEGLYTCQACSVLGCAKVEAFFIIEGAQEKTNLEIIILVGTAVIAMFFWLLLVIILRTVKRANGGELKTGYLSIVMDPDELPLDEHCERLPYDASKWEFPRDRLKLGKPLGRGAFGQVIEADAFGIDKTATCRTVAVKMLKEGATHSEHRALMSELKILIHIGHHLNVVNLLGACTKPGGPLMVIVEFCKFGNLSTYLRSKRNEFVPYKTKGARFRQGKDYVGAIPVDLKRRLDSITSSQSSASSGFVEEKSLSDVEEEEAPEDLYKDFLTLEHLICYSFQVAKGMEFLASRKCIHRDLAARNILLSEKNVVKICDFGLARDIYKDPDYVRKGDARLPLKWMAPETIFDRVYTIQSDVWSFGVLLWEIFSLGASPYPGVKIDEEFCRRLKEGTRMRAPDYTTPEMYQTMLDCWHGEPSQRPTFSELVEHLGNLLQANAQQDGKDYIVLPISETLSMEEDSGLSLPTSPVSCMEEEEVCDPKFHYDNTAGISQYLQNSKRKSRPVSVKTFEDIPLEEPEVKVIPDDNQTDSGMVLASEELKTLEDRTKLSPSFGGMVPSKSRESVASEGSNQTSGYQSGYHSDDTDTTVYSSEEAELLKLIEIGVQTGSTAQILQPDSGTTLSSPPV

MELK(h) = MELK(h) (Homo sapiens, UniProt Q14680)
MELK(h), sequence (Q14680 whole entry): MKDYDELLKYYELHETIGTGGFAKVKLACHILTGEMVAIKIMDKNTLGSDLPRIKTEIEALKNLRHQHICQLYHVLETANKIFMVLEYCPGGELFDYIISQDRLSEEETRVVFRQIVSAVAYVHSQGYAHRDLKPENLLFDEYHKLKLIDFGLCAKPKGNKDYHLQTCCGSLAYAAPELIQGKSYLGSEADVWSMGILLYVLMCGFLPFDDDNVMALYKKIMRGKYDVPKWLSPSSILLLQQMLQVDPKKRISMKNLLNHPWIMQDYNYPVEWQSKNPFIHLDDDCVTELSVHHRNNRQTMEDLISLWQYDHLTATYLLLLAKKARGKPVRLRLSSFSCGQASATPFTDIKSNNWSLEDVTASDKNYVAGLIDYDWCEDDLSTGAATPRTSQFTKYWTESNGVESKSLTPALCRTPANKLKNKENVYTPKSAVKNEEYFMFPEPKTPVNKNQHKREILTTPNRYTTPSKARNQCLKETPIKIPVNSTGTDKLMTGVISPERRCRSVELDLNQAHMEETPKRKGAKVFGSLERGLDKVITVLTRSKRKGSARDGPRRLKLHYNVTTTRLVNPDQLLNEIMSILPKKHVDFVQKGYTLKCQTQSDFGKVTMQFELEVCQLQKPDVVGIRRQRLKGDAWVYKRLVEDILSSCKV

Met(Y1248C)(h) = Met(Y1248C)(h) (Homo sapiens, UniProt P08581, Y1230C)
PKD2(h) = biological target: T2, PKD2(h) (Homo sapiens, UniProt Q9BZL6)
T2 sequence (Q9BZL6 1-878): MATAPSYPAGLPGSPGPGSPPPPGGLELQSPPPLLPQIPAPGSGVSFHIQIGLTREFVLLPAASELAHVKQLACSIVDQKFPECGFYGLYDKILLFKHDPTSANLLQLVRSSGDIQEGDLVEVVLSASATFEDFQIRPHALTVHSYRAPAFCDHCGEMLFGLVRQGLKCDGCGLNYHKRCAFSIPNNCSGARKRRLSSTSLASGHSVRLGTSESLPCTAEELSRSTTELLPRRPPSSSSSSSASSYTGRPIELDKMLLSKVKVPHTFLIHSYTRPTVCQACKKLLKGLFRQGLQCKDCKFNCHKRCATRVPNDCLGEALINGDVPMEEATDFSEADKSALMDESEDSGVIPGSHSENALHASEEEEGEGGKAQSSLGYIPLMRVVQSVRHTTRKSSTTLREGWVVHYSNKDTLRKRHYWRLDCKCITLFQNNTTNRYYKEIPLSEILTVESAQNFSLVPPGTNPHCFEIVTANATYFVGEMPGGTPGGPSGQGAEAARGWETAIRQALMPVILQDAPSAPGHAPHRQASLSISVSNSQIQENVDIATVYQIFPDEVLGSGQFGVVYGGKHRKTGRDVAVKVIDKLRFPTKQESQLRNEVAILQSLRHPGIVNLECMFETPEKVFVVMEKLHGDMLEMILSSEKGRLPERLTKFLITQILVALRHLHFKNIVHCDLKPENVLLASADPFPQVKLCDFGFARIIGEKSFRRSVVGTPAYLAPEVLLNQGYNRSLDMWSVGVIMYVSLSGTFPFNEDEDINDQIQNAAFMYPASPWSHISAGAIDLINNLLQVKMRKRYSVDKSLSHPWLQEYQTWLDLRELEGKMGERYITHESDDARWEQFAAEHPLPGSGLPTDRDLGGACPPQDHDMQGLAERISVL

Rsk4(h) = Rsk4(h) (Homo sapiens, UniProt Q9UK32)
Rsk4(h), sequence (Q9UK32 whole entry): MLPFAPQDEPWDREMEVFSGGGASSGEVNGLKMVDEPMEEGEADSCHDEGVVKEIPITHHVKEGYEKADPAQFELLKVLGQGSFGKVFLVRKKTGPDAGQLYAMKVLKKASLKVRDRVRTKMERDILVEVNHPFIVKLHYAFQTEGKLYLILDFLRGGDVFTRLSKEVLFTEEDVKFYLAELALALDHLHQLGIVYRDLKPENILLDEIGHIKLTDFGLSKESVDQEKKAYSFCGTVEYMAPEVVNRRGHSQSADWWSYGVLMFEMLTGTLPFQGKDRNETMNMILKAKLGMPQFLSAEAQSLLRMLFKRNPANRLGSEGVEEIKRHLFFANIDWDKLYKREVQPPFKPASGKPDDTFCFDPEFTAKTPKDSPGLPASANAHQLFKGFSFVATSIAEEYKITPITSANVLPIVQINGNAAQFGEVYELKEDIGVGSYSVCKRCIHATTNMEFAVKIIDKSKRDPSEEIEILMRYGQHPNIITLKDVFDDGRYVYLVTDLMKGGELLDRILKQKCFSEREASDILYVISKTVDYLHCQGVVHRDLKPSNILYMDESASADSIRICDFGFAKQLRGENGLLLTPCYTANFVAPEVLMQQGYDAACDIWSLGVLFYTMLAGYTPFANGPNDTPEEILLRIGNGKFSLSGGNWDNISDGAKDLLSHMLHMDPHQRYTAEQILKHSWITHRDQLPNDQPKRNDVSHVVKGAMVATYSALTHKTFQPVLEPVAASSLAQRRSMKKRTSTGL

Tec(h)activated = biological target: T3, Tec(h)activated (Homo sapiens, UniProt P42680)
T3 sequence (P42680 1-631): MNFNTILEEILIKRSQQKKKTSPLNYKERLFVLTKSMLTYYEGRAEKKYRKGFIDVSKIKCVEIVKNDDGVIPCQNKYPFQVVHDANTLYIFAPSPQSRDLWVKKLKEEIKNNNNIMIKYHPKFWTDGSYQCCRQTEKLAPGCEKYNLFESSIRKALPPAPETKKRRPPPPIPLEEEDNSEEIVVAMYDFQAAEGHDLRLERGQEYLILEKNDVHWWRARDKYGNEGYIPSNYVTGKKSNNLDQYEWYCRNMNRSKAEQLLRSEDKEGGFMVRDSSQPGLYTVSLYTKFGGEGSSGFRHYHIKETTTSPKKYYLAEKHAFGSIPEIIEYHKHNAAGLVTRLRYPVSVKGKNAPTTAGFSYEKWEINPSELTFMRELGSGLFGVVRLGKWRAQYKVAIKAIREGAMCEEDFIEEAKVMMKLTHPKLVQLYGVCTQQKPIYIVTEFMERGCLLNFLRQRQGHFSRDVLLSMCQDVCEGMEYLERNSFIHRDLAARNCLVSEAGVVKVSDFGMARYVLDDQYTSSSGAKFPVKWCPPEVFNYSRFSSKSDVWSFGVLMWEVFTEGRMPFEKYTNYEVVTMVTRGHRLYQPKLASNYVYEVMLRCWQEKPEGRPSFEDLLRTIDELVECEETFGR

EphA5(h), sequence (P54756 25-1037): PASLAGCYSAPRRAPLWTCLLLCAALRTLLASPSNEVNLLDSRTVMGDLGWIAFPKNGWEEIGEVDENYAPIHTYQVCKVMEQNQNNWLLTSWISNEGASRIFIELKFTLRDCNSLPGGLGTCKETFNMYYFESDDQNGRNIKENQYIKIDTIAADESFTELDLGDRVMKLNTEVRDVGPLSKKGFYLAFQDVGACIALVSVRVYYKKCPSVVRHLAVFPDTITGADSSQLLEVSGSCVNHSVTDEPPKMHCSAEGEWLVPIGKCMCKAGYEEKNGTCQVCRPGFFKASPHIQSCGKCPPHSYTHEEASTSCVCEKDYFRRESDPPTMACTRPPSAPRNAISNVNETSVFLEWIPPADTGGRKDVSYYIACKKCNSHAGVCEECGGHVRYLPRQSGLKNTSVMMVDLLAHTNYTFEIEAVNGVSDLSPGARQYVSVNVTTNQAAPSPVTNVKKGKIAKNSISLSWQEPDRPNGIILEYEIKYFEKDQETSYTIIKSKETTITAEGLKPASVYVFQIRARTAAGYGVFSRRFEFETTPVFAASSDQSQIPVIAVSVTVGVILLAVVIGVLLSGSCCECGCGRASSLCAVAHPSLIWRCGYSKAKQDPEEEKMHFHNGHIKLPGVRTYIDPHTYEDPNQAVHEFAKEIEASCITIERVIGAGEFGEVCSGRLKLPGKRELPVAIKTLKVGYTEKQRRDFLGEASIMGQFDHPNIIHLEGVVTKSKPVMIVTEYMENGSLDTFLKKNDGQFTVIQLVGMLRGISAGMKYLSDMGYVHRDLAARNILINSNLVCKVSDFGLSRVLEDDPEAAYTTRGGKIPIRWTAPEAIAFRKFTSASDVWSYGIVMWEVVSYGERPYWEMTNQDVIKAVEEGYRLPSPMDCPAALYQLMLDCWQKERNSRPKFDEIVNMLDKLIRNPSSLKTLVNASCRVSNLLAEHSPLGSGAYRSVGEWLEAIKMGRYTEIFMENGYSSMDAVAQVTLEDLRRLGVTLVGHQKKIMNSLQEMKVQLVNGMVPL

| Substance | % activity (Ax1(h)) [%] | % activity (cKit(h)) [%] | % activity (cSRC(h)) [%] | % activity (EphA5(h)) [%] | % activity (EphB1(h)) [%] | % activity (KDR(h)) [%] | % activity (MELK(h)) [%] | % activity (Met(Y1248C)(h)) [%] | % activity (PKD2(h)) [%] | % activity (Rsk4(h)) [%] | % activity (Tec(h)activated) [%] | further results |
| --- | --- | --- | --- | --- | --- | --- | --- | --- | --- | --- | --- | --- |
| H-YARAAARQARAKALARQLGVAA-OH [MMI-0100] |  |  |  |  |  |  |  |  |  |  |  | activity at 100 µM (Ax1(h)): 81%; activity at 100 µM (cKit(h)): 95%; activity at 100 µM (cSRC(h)): 70%; activity at 100 µM (EphA5(h)): 110%; activity at 100 µM (EphB1(h)): 99%; activity at 100 µM (KDR(h)): 100%; activity at 100 µM (MELK(h)): 74%; activity at 100 µM (Met(Y1248C)(h)): 77%; activity at 100 µM (PKD2(h)): 84%; activity at 100 µM (Rsk4(h)): 99%; activity at 100 µM (Tec(h)activated): 100% |
| HRRIKAWLKKIKALARQLGVAA (Mammalian) [MMI-0500] | 12 | 45 | 30 | 42 | 37 | 15 | 0 | 73 | 10 | 29 | 33 |  |
| YARAAARQARAKALNRQLGVA (Mammalian) [MMI-0200] | 99 | 110 | 32 | 123 | 95 | 110 | 59 | 141 | 78 | 125 | 77 |  |
